Laboratory results taken from patent US20200277385A1 (LABORATOIRE FRANCAIS DU FRACTIONNEMENT ET DES …, published 2020).

T1: human CD303 antigen expressed on cells (human, UniProt Q8WTT0 1-213)
T1 construct: On Fcγ chain-CD303 Jurkat cells, CAL-1 cells, and CAL-1 cells transfected with a CD303 expression vector; also called BDCA-2; BDCA2
T1 sequence: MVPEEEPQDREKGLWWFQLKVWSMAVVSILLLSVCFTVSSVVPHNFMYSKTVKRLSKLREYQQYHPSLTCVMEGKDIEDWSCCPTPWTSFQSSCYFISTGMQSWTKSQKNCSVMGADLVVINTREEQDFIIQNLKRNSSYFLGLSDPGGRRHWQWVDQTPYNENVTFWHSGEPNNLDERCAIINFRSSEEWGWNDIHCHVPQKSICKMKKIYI

B1: chimeric antibody 122A2 (antibody, human IgG1, kappa)
heavy: not shown
light: DIQMTQTTSSLSASLGDRVTISCRASQDISNYLNWYQQKPDGTVKLLIYYTSRLHSGVPSRFSGSGSGTDYSLTISNLDQEDIATYFCQQGNTLPWTFGGGTKLEIKRTVAAPSVFIFPPSDEQLKSGTASVVCLLNNFYPREAKVQWKVDNALQSGNSQESVTEQDSKDSTYSLSSTLTLSKADYEKHKVYACEVTHQGLSSPVTKSFNRGEC
notes: also called ch.122A2; ch122A2
B2: chimeric antibody 102E9 (antibody, human IgG1, kappa)
heavy: not shown
light: QIVLTQSPAIMSASPGEKVTITCSASSSVIYIHWFQQKPGTSPKLWIYSTSYLASGVPARFSGSGSGTSYSLTISRMEAEDAATYYCQQRRSYPFTFGGGTKLEIKRTVAAPSVFIFPPSDEQLKSGTASVVCLLNNFYPREAKVQWKVDNALQSGNSQESVTEQDSKDSTYSLSSTLTLSKADYEKHKVYACEVTHQGLSSPVTKSFNRGEC
notes: also called ch.102E9

Tests used:
[1] = molecular target: T1, human CD303 antigen expressed on cells; experiment: flow cytometry on CAL-1 cells (experiment with BIIB059)
Protocol: (§1) The CD303-expressing cells and the antibodies are prepared in diluent (PBS+1% FCS). 1·10⁵ cells are incubated at 4° C. for 30 minutes with 100 μL of antibody (anti-CD303 or negative control) at various concentrations (0-40 μg/mL, final concentration).
(§2) After washing with the diluent, the antibodies are visualized by addition of a phycoerythrin (PE)-coupled goat anti-mouse IgG F(ab′)₂ fragment (100 μL diluted to 1:100 in the diluent) for 45 minutes at 4° C. The cells are then washed and analyzed by flow cytometry (FC500, Beckman Coulter).

[2] = molecular target: T1, human CD303 antigen expressed on cells; experiment: flow cytometry on Fcγ chain-CD303 Jurkat cells
Protocol: as §1, §2

FcγRIIIa (CD16a) [3] = molecular target: T2, FcγRIIIa (CD16a) (UniProt P08637 17-254, limits assumed); experiment: competition with 3G8-PE for CD16 on NK cells, flow cytometry
T2 construct: whole, on cells; also called Fcγ receptor III

FcγRIIIa (CD16a) [4] = molecular target: T2, FcγRIIIa (CD16a); experiment: competition with 3G8-PE for CD16 on NK cells, flow cytometry (second experiment)
[5] = molecular target: T1, human CD303 antigen expressed on cells; experiment: flow cytometry on CAL-1 cells transfected with CD303 (about 40,000-50,000 CD303/cell)
Protocol: as §1, §2

[6] = molecular target: T1, human CD303 antigen expressed on cells; experiment: flow cytometry on CAL-1 cells
Protocol: as §1, §2

[7] = molecular target: T1, human CD303 antigen expressed on cells; experiment: cell-based or functional assay
[8] = molecular target: T1, human CD303 antigen expressed on cells; experiment: cell-based or functional assay; remark: listed apart in the source
[9] = molecular target: T1, human CD303 antigen expressed on cells; experiment: cell-based or functional assay; remark: listed apart in the source

T2 sequence (P08637 17-254 limits assumed): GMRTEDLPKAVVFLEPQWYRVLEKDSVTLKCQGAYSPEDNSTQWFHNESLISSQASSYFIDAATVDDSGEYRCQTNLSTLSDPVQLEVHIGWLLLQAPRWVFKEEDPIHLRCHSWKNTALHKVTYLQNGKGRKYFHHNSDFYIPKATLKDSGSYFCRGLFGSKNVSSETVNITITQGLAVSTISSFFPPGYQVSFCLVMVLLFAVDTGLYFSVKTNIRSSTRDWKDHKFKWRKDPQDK

| Binder | EC50 [1] [µg/mL] | Bmax (MFI) [2] [MFI] | EC50 [2] [µg/mL] | IC50 (FcγRIIIa (CD16a) [3]) [µg/mL] | IC50 (FcγRIIIa (CD16a) [4]) [µg/mL] | EC50 [5] [µg/mL] | Bmax (MFI) [6] [MFI] | EC50 [6] [µg/mL] | ADCC EC50, Fcγ chain-CD303 Jurkat target cells with NK cells [7] [µg/mL] | ADCC Emax (% lysis), Fcγ chain-CD303 Jurkat target cells with NK cells [7] [% lysis] | IC50 for IFN-α secretion from pDCs contained in PBMCs [8] [ng/mL] | ADCC EC50, CAL-1 target cells [9] [µg/mL] |
| --- | --- | --- | --- | --- | --- | --- | --- | --- | --- | --- | --- | --- |
| B1 | 0.06 | 26.2 | 0.128 | 40.4 | 13 | 0.142 | 25.2 | 0.207 | 0.000159 | 42.4 | 0.959 | 0.00093 |
| B2 | 0.44 | 24.9 | 3.87 | 37 | 13 | 0.363 | 30.5 | 1.81 | 0.00342 | 38.9 |  | 0.0038 |
